The supplement of paper PMC10126150
± gives the standard deviation of the averaged measurements.

System: ATP
Experiment: switch fluorescence ratio, 500 uM ATP over buffer (Cy3 cluster intensity, sum of 5 cycles each) (fold (ratio)); higher = stronger signal-on switching upon ATP binding; sequences stand for … in TCGTCGGCAGCGTCAGATGTGTATAAGAGACAGTTTTTTTTTTTTTTTTTTTTTTTTT…TC
Details: aptamer strand: ATP DNA aptamer (quencher-CACCTGGGGGAGTATTGCGGAGGAAGG + anchor), 100 nM annealed; ATP concentration: 500 uM
Outline: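 Cy3-labelled switching-strand clusters on a modified Illumina MiSeq flow-cell were annealed to 100 nM quencher-labelled ATP aptamer, imaged in selection buffer, then imaged after 15 min with 500 uM ATP at 22 °C. Five buffer/ATP cycles ran, with NaOH stripping and re-annealing between them. The fluorescence ratio is summed target-cycle over summed buffer-cycle Cy3 intensity per cluster, averaged per switch-domain sequence. Clusters outside 100-1000 RFU were excluded.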
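Note: ATP exposure 15 min at 22 °C before imaging.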

Sequence	switch fluorescence ratio
TTTTACCGAT	1.01 ± 0.034
TTTTACCGT	0.996 ± 0.012
TTTTACCTAT	1.04 ± 0.021
TTTTACGTCA	1.21 ± 0.073
TTTTACTGAT	1.02 ± 0.026
TTTTACTTGG	0.993 ± 0.015
TTTTACTTTT	1.01 ± 0.037
TTTTAGAGAG	0.997 ± 0.019
TTTTAGAGCG	1.02 ± 0.025
TTTTAGAGGA	0.9736 ± 0.0013
TTTTAGATTT	0.995 ± 0.026
TTTTAGGATG	0.996 ± 0.025
TTTTAGGCAT	1.01 ± 0.031
TTTTAGGGGA	1.01 ± 0.025
TTTTAGGGGT	1.02 ± 0.046
TTTTAGGTCA	0.9901 ± 0.0063
TTTTAGTCGT	0.991 ± 0.02
TTTTAGTGCC	1.01 ± 0.04
TTTTAGTGTT	1 ± 0.013
TTTTAGTTAG	1.03 ± 0.058
TTTTATATGG	0.986 ± 0.021
TTTTATCGAG	0.9893 ± 0.0093
TTTTATCGGT	0.979 ± 0.012

Sequence	switch fluorescence ratio
TTTTATCTTT	1 ± 0.015
TTTTATGAG	0.999 ± 0.031
TTTTATGCGG	0.974 ± 0.019
TTTTATGCGT	0.993 ± 0.033
TTTTATGGCT	0.982 ± 0.04
TTTTATGGGA	0.9849 ± 0.0032
TTTTATGTAA	0.996 ± 0.032
TTTTATGTCT	0.976 ± 0.03
TTTTATGTG	1.01 ± 0.021
TTTTATGTTA	0.977 ± 0.032
TTTTATTGCA	0.96835 ± 0.00073
TTTTATTGGT	0.9738 ± 0.0075
TTTTATTTGT	0.985 ± 0.0089
TTTTCAACTA	0.9949 ± 0.0024
TTTTCACTTT	1.01 ± 0.046
TTTTCAGAAG	0.997 ± 0.013
TTTTCAGATT	0.9601 ± 0.0086
TTTTCAGGAA	1.018 ± 0.0092
TTTTCAGGGT	1.01 ± 0.025
TTTTCAGTTG	1.002 ± 0.0029
TTTTCATGCC	1.09 ± 0.056
TTTTCATTCG	1 ± 0.033
TTTTCATTTC	1.01 ± 0.012

Sequence	switch fluorescence ratio
TTTTCCCCCT	1.081 ± 0.0069
TTTTCCCCTC	1.64 ± 1
TTTTCCCGGA	1.013 ± 0.0028
TTTTCCGGCC	1.72 ± 0.54
TTTTCCGTGG	1.01 ± 0.069
TTTTCCTAAA	1.06 ± 0.11
TTTTCCTAAC	0.999 ± 0.071
TTTTCCTAGA	1.004 ± 0.0057
TTTTCCTAGT	1.12 ± 0.073
TTTTCCTGAG	1.04 ± 0.035
TTTTCCTTGT	1.08 ± 0.13
TTTTCGACGA	1.27 ± 0.3
TTTTCGCTTT	1.09 ± 0.17
TTTTCGGGTA	1.02 ± 0.0091
TTTTCGTCAA	2.86 ± 2.4
TTTTCGTCTC	1.02 ± 0.019
TTTTCGTGAA	1.01 ± 0.021
TTTTCGTGGT	0.984 ± 0.017
TTTTCGTTTG	1 ± 0.074
TTTTCTAAAT	1.04 ± 0.076
TTTTCTAGGG	1.01 ± 0.017
TTTTCTATCT	1.06 ± 0.057
TTTTCTATGG	1 ± 0.082

Sequence	switch fluorescence ratio
TTTTCTGGAA	1.01 ± 0.029
TTTTCTGTAT	1.03 ± 0.052
TTTTGAACGA	1.01 ± 0.035
TTTTGAAGAT	1.009 ± 0.01
TTTTGAAGGA	1.01 ± 0.027
TTTTGAAGTA	1.0186 ± 0.00093
TTTTGAATGG	1.02 ± 0.04
TTTTGAATTA	1.01 ± 0.032
TTTTGAGGCT	1.01 ± 0.073
TTTTGAGTAG	0.987 ± 0.021
TTTTGATCTT	0.991 ± 0.012
TTTTGATGCT	0.998 ± 0.057
TTTTGATGGG	0.981 ± 0.055
TTTTGATTGA	1.03 ± 0.034
TTTTGCAGCT	1 ± 0.019
TTTTGCATAT	1.26 ± 0.42
TTTTGCCATT	0.999 ± 0.035
TTTTGCCTAT	1 ± 0.025
TTTTGCGAAG	1.03 ± 0.027
TTTTGCTGCC	1.027 ± 0.002
TTTTGCTGGT	1 ± 0.027
TTTTGGAAAG	0.987 ± 0.013
TTTTGGACTC	1.007 ± 0.006

Sequence	switch fluorescence ratio
TTTTGGCCGG	1.05 ± 0.035
TTTTGGCGCG	1 ± 0.061
TTTTGGCTTT	1 ± 0.034
TTTTGGGAGT	1 ± 0.026
TTTTGGGCAT	1.04 ± 0.11
TTTTGGGGAA	1 ± 0.024
TTTTGGGGCC	1 ± 0.032
TTTTGGGGCG	1.04 ± 0.055
TTTTGGGTAA	1.01 ± 0.0051
TTTTGGTGTT	1.02 ± 0.036
TTTTGTAGGG	0.969 ± 0.041
TTTTGTAGTG	0.988 ± 0.042
TTTTGTGAGG	1.04 ± 0.044
TTTTGTGGG	0.966 ± 0.046
TTTTGTGGGT	0.986 ± 0.022
TTTTGTTACC	1.02 ± 0.018
TTTTGTTCAC	1.01 ± 0.017
TTTTGTTGAG	1 ± 0.035
TTTTGTTGGC	1.04 ± 0.035
TTTTGTTTA	0.984 ± 0.022
TTTTTAAAGG	0.976 ± 0.013
TTTTTAACGT	1.02 ± 0.027
TTTTTAAGCG	1 ± 0.023

Sequence	switch fluorescence ratio
TTTTTAATAC	1.33 ± 0.29
TTTTTAATAG	0.9855 ± 0.002
TTTTTAATTC	1.03 ± 0.024
TTTTTACAGT	1.02 ± 0.048
TTTTTACCGT	1.12 ± 0.088
TTTTTACGGT	1.1 ± 0.15
TTTTTAGCTG	1.04 ± 0.058
TTTTTAGGC	1.01 ± 0.078
TTTTTAGGCC	0.999 ± 0.016
TTTTTAGGGA	0.99 ± 0.029
TTTTTAGTCC	1 ± 0.023
TTTTTAGTGG	0.981 ± 0.015
TTTTTATAAG	0.994 ± 0.019
TTTTTATAAT	1.01 ± 0.026
TTTTTATATA	0.997 ± 0.016
TTTTTATCGT	1.02 ± 0.017
TTTTTATCTA	1.01 ± 0.036
TTTTTATGAA	1.011 ± 0.0019
TTTTTATGCT	0.99 ± 0.035
TTTTTATTCG	0.994 ± 0.019
TTTTTCAAGG	1.01 ± 0.013
TTTTTCAATA	1.01 ± 0.023
TTTTTCAATT	0.982 ± 0.017

Sequence	switch fluorescence ratio
TTTTTCACCG	1.07 ± 0.079
TTTTTCACTT	1 ± 0.036
TTTTTCAGAT	1.03 ± 0.055
TTTTTCAGTA	0.981 ± 0.016
TTTTTCATGT	0.997 ± 0.044
TTTTTCCGAG	1.08 ± 0.025
TTTTTCCGCA	2.18 ± 0.83
TTTTTCCGGT	1.07 ± 0.13
TTTTTCCGTG	0.9819 ± 0.0037
TTTTTCGGCC	0.979 ± 0.026
TTTTTCTACG	1.2 ± 0.28
TTTTTCTGCT	0.9786 ± 0.0051
TTTTTCTTCA	1 ± 0.011
TTTTTGAAT	1.01 ± 0.021
TTTTTGACC	1.008 ± 0.0017
TTTTTGAGCA	1.05 ± 0.049
TTTTTGAT	0.972 ± 0.022
TTTTTGATGA	1.02 ± 0.015
TTTTTGATTA	0.986 ± 0.062
